± gives the standard deviation of the averaged measurements.
Test system: Saccharomyces cerevisiae
Assay: protein stability index of tFT-peptide fusion (C-terminal peptide) (PSI (0-1 scale)); higher = more stable (slower turnover)
Details: genetic background: wild type; temperature: 30 C
Method: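 Multiplexed protein stability (MPS) profiling in S. cerevisiae. Random 12-aa peptides (tFT-X12 library) are fused to the C-terminus of a sfGFP-mCherry tandem fluorescent timer, after mCherry and a GGGS linker. Cells are FACS-sorted into 8 mCherry/sfGFP bins and deep-sequenced. The protein stability index (PSI) is the read-weighted bin average, scaled from 0 (unstable) to 1 (stable). Only peptides with >10 reads are reported; cells were grown at 30 °C in SC-His with glucose.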
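Also: PSI is a weighted mean of sequencing reads over stability bins, variants kept only with over 10 reads, mCherry proximal and sfGFP distal, peptide attached via GGGS linker.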

Sequence	protein stability index
VSLCYGGGFWGR	0.698 ± 0.018
PPPYHLTPPPPF	0.662 ± 0.052
LPAPSPSPHPPA	0.689 ± 0.026
SRRERALGQQPI	0.679 ± 0.011
PRLSGLFLAPPS	0.707 ± 0.037
RKKKRKKKKTER	0.647 ± 0.041
GYSYTEFPPEAV	0.708 ± 0.08
GGCPPFGVSSVG	0.708 ± 0.013
SVVFSQCLVNLG	0.659 ± 0.062
ARGGGPERIHPE	0.66362 ± 0.00048
KVCGRIWWCPRA	0.638 ± 0.03
GLCAVWSGAGRC	0.7 ± 0.037
LGGEVDLGPARG	0.662 ± 0.092
DRREKAKNMTKG	0.67 ± 0.025
LIPIRGESTFRF	0.779 ± 0.11
GGGLGGLGCFMV	0.698 ± 0.036
ITSLQAPPEYLH	0.6922 ± 0.0062
TACIVGLRLMRL	0.787 ± 0.063
KKTDNGSYERGE	0.701 ± 0.018
GGCEWWSGGRGG	0.733 ± 0.026
NAYRYFLNKQNR	0.697 ± 0.012
VRVSPDVYGSFM	0.5897 ± 0.0057
VFVGGGCRGFCL	0.624 ± 0.075
RNERNAKAKNEK	0.649 ± 0.012
LFAGPPTGPNAR	0.802 ± 0.12

Sequence	protein stability index
PFIPQPFPPLCS	0.709 ± 0.075
PSPAPFPSSPSL	0.687 ± 0.0073
TLESRPALVFFS	0.681 ± 0.0088
CRLANEIMYDKN	0.685 ± 0.014
TPGMCDRQFGVD	0.685 ± 0.028
KIYESPLLEIKI	0.617 ± 0.032
KKGPANEWKRGE	0.685 ± 0.081
KIGNDQNVEDRK	0.756 ± 0.059
GIRKNIDNNEKI	0.686 ± 0.03
DSLWACVGSSAL	0.771 ± 0.024
AGSSGGGAWWGE	0.681 ± 0.12
PLRSDSRAESLL	0.653 ± 0.051
VLVSSLSSSKFF	0.647 ± 0.088
SLQRLALLRGPP	0.736 ± 0.05
RPFSAPLCLLPS	0.7 ± 0.024
HNSTKTQSLRGT	0.719 ± 0.016
PFPPPPSPPLYP	0.7292 ± 0.0012
RRIFTLIARRLW	0.672 ± 0.013
PLPPPPAPPLSP	0.67 ± 0.018
WSFMYLYFFDSW	0.685 ± 0.086
PSHTPLPPSSLS	0.763 ± 0.089
GGGLVLSGWCVW	0.751 ± 0.026
PLFPSPSPPRHP	0.7435 ± 0.0018
VGKVRGLEAVEE	0.683 ± 0.0052
FCEASSSSRISA	0.744 ± 0.088

Sequence	protein stability index
DANRSPEYSLNG	0.7169 ± 0.0062
EFRQVDGRASRP	0.701 ± 0.0049
TPRTRPFNPPPR	0.729 ± 0.023
GPRRLGGTSLGI	0.651 ± 0.098
RDVWPFTGKRAL	0.672 ± 0.014
SFYFAPLLSPFA	0.597 ± 0.036
GKVCGRAEYPQT	0.719 ± 0.035
IAATTVVRPAFC	0.66 ± 0.0083
RAGALYLGICDT	0.738 ± 0.069
PHTPARSLPPSR	0.6473 ± 0.0047
PRKISSFESSLT	0.629 ± 0.086
FVWAGVGCWSEA	0.723 ± 0.023
PASASVHPRILC	0.559 ± 0.05
LVHGWERPSRVR	0.661 ± 0.021
HSRPAAPCRSPL	0.679 ± 0.013
GTPNLTEEPPHQ	0.761 ± 0.034
CPAAWSLPCRPP	0.6599 ± 0.0018
GGGSIAPRSVGT	0.7649 ± 0.0021
SLVLPIFRIVSF	0.573 ± 0.039
GARRGVSERSPA	0.647 ± 0.041
DRVMTLRLTVNP	0.691 ± 0.03
GRYSECCSGGGG	0.674 ± 0.015
PVRRAHPPPPRP	0.674 ± 0.014
PPSQLWNSPSPC	0.767 ± 0.064
GRRVPGPLRSSE	0.709 ± 0.085

Sequence	protein stability index
FCFLSALTCLCA	0.589 ± 0.021
PGPGNGHTKRTR	0.654 ± 0.034
LRGLRALRGDLT	0.654 ± 0.05
PSRAPQGRADNT	0.69 ± 0.11
WCVCTFGGCDFP	0.641 ± 0.012
SPFLFPRTVVGA	0.671 ± 0.11
SVIRTRYSSARM	0.662 ± 0.057
RRKSEYAYNTKN	0.565 ± 0.036
RSGGDGCRALSV	0.708 ± 0.064
PHLHLPPPPISA	0.5857 ± 0.00069
GGGWGSMDLRDR	0.712 ± 0.016
STASSFFFFCCF	0.664 ± 0.026
DRPTPPPRSSPL	0.739 ± 0.058
EAERDEAQRRCA	0.686 ± 0.0076
RRSLKIQKNMKR	0.686 ± 0.083
GGVLLPGFSHLL	0.7133 ± 0.0068
SGTRARGKGVVC	0.6421 ± 0.0024
GGGSHASERAAR	0.723 ± 0.022
EIRGGYMGEWRE	0.691 ± 0.082
YARVIFGGNWFS	0.552 ± 0.02
HSTGPRPKLGCQ	0.827 ± 0.019
GSNRTLSLYCVG	0.633 ± 0.016
KDRGEIKIRTKN	0.696 ± 0.039
DLRDQDAQTTST	0.692 ± 0.0088
CVDTNIERSCVC	0.66182 ± 0.00042

Sequence	protein stability index
GGGCVGGGSSCA	0.701 ± 0.12
ARGIVAHKVTQP	0.65 ± 0.11
LGLRSRIYMLVD	0.664 ± 0.0083
VASITEIRKKGR	0.629 ± 0.022
APSPPFLPLTLT	0.656 ± 0.035
SPFLTPSSHPPS	0.681 ± 0.03
KSIVAQGRLKPR	0.685 ± 0.026
PTPHLHPTSLPG	0.724 ± 0.1
VSSSQPGEYNIG	0.7088 ± 0.0029
TTLSMYFCMCVL	0.638 ± 0.14
PPTPPPPSGLPP	0.678 ± 0.05
RGGWGGGDCVGA	0.688 ± 0.09
GQQVDKMLWDEV	0.715 ± 0.025
DIDGKRLLGCWI	0.6632 ± 0.00086
PTPGGLIIVLGS	0.6322 ± 0.0041
EGPVYKNIGTDV	0.6823 ± 0.0013
GLPPLLSPVPLR	0.646 ± 0.057
PPPIPLSPPLVL	0.72 ± 0.014
KVMTEARTPALS	0.702 ± 0.027
PISPSLCSSILS	0.5893 ± 0.0056
GGRGWWRGTGSG	0.719 ± 0.056
GGELRPKGVRGV	0.656 ± 0.046
CGKPRIHEGRLM	0.691 ± 0.02
IPFEPSGPFMRN	0.7362 ± 0.007
PPFPPAPPRGPA	0.659 ± 0.043

Sequence	protein stability index
PVASGYTMWSCV	0.693 ± 0.015
GEVKRSLGQVRG	0.695 ± 0.007
HAPFPPLLVSSL	0.625 ± 0.022
LSSCPPPALRLP	0.715 ± 0.013
TIAETIGCEKII	0.785 ± 0.099
GVLVFGLGLVRD	0.623 ± 0.027
GGGGGVSGGGVF	0.672 ± 0.063
CFCDDRPSLRRV	0.729 ± 0.019
PQVSYYLLPPSS	0.711 ± 0.11
VSIVTLSLSNFA	0.611 ± 0.0072
PPRRPPLAPPPP	0.693 ± 0.019
PPTRPFHLFDHL	0.716 ± 0.029
PPPPLPRAPFSP	0.661 ± 0.0092
ATRSTLHDSMVS	0.714 ± 0.059
VSGGGWDSCLSV	0.724 ± 0.0082
GRRCKNMKKMSW	0.674 ± 0.046
PLPPASPCLCSY	0.643 ± 0.049
KPKKKNPREKPV	0.669 ± 0.064
APPPPTPPPPPA	0.7 ± 0.019
WSVVRGGGCGAR	0.697 ± 0.028
EMYLKTPVDRKL	0.678 ± 0.038

From the supplement of paper PMC10724198
